Results published in publication PMC3317499.

B1: Myc-Mal-TIR wild type (TIR domain of human MyD88 adaptor-like protein, residues 79-221, double-tagged with His6 and Myc) [human] / GST-Mal-TIR (TIR domain of human Mal, residues 79-221, GST fusion) [human] (parent)
chain 1: SSRWSKDYDVCVCHSEEDLVAAQDLVSYLEGSTASLRCFLQLRDATPGGAIVSELCQALSSSHCRVLLITPGFLQDPWCKYQMLQALTEAPGAEGCTIPLLSGLSRAAYPPELRFMYYVDGRGPDGGFRQVKEAVMRYLQTLS
chain 2: B1 chain 1

Variants of: B1
Experiment: GST pull-down, quantified Western blot
Details: with GST-Mal-TIR (TIR domain of human Mal, residues 79-221, GST fusion) [human]; n = 3 separate experiments; parent: 1; read off a plot

| ratio to parent | Variant |
| --- | --- |
| 0.91 | chain 1 SSRWSKDYDVCVCHSEEDLVAAQDLVSYLEGSTASLRCFLQLRDATPGGAIVSELCQALSSSHCRVLLITPGFLQDPWCKYQMLQALTEAPGAEGCTIPLLSGLSRAAYPPELAFMYYVDGRGPDGGFRQVKEAVMRYLQTLS |
| 0.41 | chain 1 SSRWSKDYDVCVCHSEEDLVAAQDLVSYLEGSTASLRCFLQLRDATPGGAIVSELCQALSSSHCRVLLITPGFLQDPWCKAQMLQALTEAPGAEGCTIPLLSGLSRAAYPPELRFMYYVDGRGPDGGFRQVKEAVMRYLQTLS |
| 0.6 | chain 1 SSRWSKDYDVCVCHSEEDLVAAQDLVSYLEGSTASLRCFLQLRDATPGGAIVSELCQALSSSHCRVLLITPGFLQDPACKYQMLQALTEAPGAEGCTIPLLSGLSRAAYPPELRFMYYVDGRGPDGGFRQVKEAVMRYLQTLS |
| 1.2 | chain 1 SSRWSKDYAVCVCHSEEDLVAAQDLVSYLEGSTASLRCFLQLRDATPGGAIVSELCQALSSSHCRVLLITPGFLQDPWCKYQMLQALTEAPGAEGCTIPLLSGLSRAAYPPELRFMYYVDGRGPDGGFRQVKEAVMRYLQTLS |
